From publication PMC10944109 come the findings set out here.

The target of assay [1] is LZ-Las17(281–633), biotinylated leucine zipper dimeric form of Las17 residues 281–633 (S. cerevisiae). Description: supernatant depletion binding assay; biotinylated LZ-Las17(281–633) dimer on magnetic streptavidin beads (16 nM to 2.06 μM dimer for the WT isotherm; 0.6 μM dimer for mutants and CA fusions); 50 nM Arp2/3 complex in solution; 1x PC buffer plus 0.05% Tween-20; 70 min, room temperature; Arp2/3 complex left in the supernatant quantified by anti-Arp3 dot blot.

In assay [2] the target is Monomeric Las17(281–633) (S. cerevisiae) (UniProt Q12446).
Assay [3] deals with LZ-Myo5(1146–1220), biotinylated leucine zipper dimeric form of the Myo5 CA segment (S. cerevisiae) (UniProt P03069). Description: supernatant depletion binding assay; biotinylated LZ-Myo5–CA dimer on magnetic streptavidin beads (25 nM to 1.6 μM dimer for the WT isotherm; 0.4 μM dimer for mutants); 50 nM Arp2/3 complex in solution; 1x PC buffer plus 0.05% Tween-20; 70 min, room temperature; Arp2/3 complex left in the supernatant quantified by anti-Arp3 dot blot.

Turning to “S. cerevisiae Arp2/3 complex with ARPC1(F183A, K185D) (from UniProt P47117 1-449; P32381 1-391; P38328 1-384; P53731 1-342)”, the reduction in binding compared with the WT complex in assay [1] is 50%.
Same read-out and setting: with “S. cerevisiae Arp2/3 complex with Arp2(V142A, Y146A) (from UniProt P47117 1-449; P32381 1-391; P38328 1-384; P53731 1-342)” the figure was 50%.
As for “S. cerevisiae Arp2/3 complex with Arp3(R371D) (from UniProt P47117 1-449; P32381 1-391; P38328 1-384; P53731 1-342)”, in assay [2], the maximum polymerization rate in pyrene actin polymerization assay as percent of WT activity; 20 nM Arp2/3 complex, 3 μM 15% pyrene actin, Las17(281–633), PC buffer (% of the WT activity) is 56. Also, in assay [1], the reduction in binding compared with WT Arp2/3 complex turned out to be 30%.
“S. cerevisiae Arp2/3 complex with Arp3(R403D, K404D) (from UniProt P47117 1-449; P32381 1-391; P38328 1-384; P53731 1-342)” registered a maximum polymerization rate in pyrene actin polymerization assay as percent of WT activity; 20 nM Arp2/3 complex, 3 μM 15% pyrene actin, 1.5 μM monomeric Las17(281–633), PC buffer (% of the WT activity) in assay [2] of 20.
On the same count and under the same terms, the same measure for “S. cerevisiae Arp2/3 complex with Arp3(W191A, T192A) (from UniProt P47117 1-449; P32381 1-391; P38328 1-384; P53731 1-342)”: 17.
Turning to “S. cerevisiae Arp2/3 complex with the CA segment of N-WASP fused to Arp2 (Arp2–CA fusion complex) (from UniProt P47117 1-449; P38328 1-384; P53731 1-342)”, in assay [1], the percent of the complex pulled down at 0.6 μM (LZ-Las17(281–633))2 stood at 30%.
The same measure, in the same setting: the same measure for “S. cerevisiae Arp2/3 complex with the CA segment of N-WASP fused to Arp3 (Arp3–CA fusion complex) (from UniProt P32381 1-391; P38328 1-384; P53731 1-342)”: 73%.
Broadly, the Kd is the constant that tells how readily two partners part at equilibrium. For “WT S. cerevisiae Arp2/3 complex (ARPC2 with C-terminal tandem 12xHis and TwinStrep tags) (from UniProt P47117 1-449; P32381 1-391; P38328 1-384; P53731 1-342)”, the Kd was 130 nM in assay [3] and 160 nM in assay [1].
